Results: patent US11260115B1, “Peptides and combination of peptides for use in immunotherapy against CLL and other cancers” (immatics biotechnologies GmbH, priority 2015, dated 2022)

The substances below were run against HLA-A*02:01 (Homo sapiens, UniProt P04439, D140Y/D185E/D98H/E176V/E277Q/G131W/G231S/I119V/I121R/I166T/I218V/L300P/L318F/N151K/N90K/P208A/P217A/Q86G/Q94H/R138H/R169H/T345S) (assay: MHC binding assay (UV-ligand exchange, β2m ELISA, peptide exchange yield)). Details: binding to HLA-A*02:01.
Outline: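 Peptide-HLA-A*02:01 complexes formed by UV-mediated exchange of a photocleavable ligand; exchange yield measured by streptavidin-capture ELISA detecting β2m with HRP anti-β2m, TMB read at 450 nm. Refolded monomer standards 15-500 ng/ml; samples diluted 100-fold.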

Row | Substance | Peptide Exchange (MHC class I binding score, peptide exchange yield)
1 | 334 (YLLEEKIASL; listed as Homo sapiens) [compound 334] | “+++” (>50 = +++)
2 | 335 (YLYQEQYFI; listed as Homo sapiens) [compound 335] | “+++” (>50 = +++)
3 | 336 (YMAVTTQEV; listed as Homo sapiens) [compound 336] | “++++” (>75% = ++++)
4 | 337 (YMYEKESEL; listed as Homo sapiens) [compound 337] | “++” (>20% = ++)
5 | 338 (FLDMTNWNL; listed as Homo sapiens) [compound 338] | “++++” (>75% = ++++)
6 | 339 (GLWGTVVNI; listed as Homo sapiens) [compound 339] | “+++” (>50 = +++)
7 | 340 (KLLEEICNL; listed as Homo sapiens) [compound 340] | “++++” (>75% = ++++)
8 | 341 (LLAELPASVHA; listed as Homo sapiens) [compound 341] | “+++” (>50 = +++)
9 | 342 (SLITPLQAV; listed as Homo sapiens) [compound 342] | “+++” (>50 = +++)
10 | 344 (VLAFENPQV; listed as Homo sapiens) [compound 344] | “+++” (>50 = +++)
11 | 345 (YLIEPDVELQRI; listed as Homo sapiens) [compound 345] | “+++” (>50 = +++)
12 | 346 (VLVQVSPSL; listed as Homo sapiens) [compound 346] | “+++” (>50 = +++)
13 | 347 (YLGPVSPSL; listed as Homo sapiens) [compound 347] | “+++” (>50 = +++)
14 | 348 (ALAKPPVVSV; listed as Homo sapiens) [compound 348] | “+++” (>50 = +++)
15 | 349 (ALATHILSL; listed as Homo sapiens) [compound 349] | “+++” (>50 = +++)
16 | 350 (ALEDRVWEL; listed as Homo sapiens) [compound 350] | “+++” (>50 = +++)
17 | 351 (ALSEKLARL; listed as Homo sapiens) [compound 351] | “+++” (>50 = +++)
18 | 352 (ALVFELHYV; listed as Homo sapiens) [compound 352] | “+++” (>50 = +++)
19 | 353 (ATPMPTPSV; listed as Homo sapiens) [compound 353] | “++” (>20% = ++)
20 | 354 (FIMDDPAGNSYL; listed as Homo sapiens) [compound 354] | “+++” (>50 = +++)
21 | 355 (FIWPMLIHI; listed as Homo sapiens) [compound 355] | “+++” (>50 = +++)
22 | 356 (FLHDHQAEL; listed as Homo sapiens) [compound 356] | “++” (>20% = ++)
23 | 357 (FLIQEIKTL; listed as Homo sapiens) [compound 357] | “+++” (>50 = +++)
24 | 358 (FLTDYLNDL; listed as Homo sapiens) [compound 358] | “+++” (>50 = +++)

Row | Substance | Peptide Exchange (MHC class I binding score, peptide exchange yield)
25 | 359 (FMQDPMEVFV; listed as Homo sapiens) [compound 359] | “+++” (>50 = +++)
26 | 360 (HLIDTNKIQL; listed as Homo sapiens) [compound 360] | “+++” (>50 = +++)
27 | 361 (ILQEFESKL; listed as Homo sapiens) [compound 361] | “+++” (>50 = +++)
28 | 362 (ILTELGGFEV; listed as Homo sapiens) [compound 362] | “+++” (>50 = +++)
29 | 363 (ITTEVVNELYV; listed as Homo sapiens) [compound 363] | “+++” (>50 = +++)
30 | 364 (KMDWIFHTI; listed as Homo sapiens) [compound 364] | “+++” (>50 = +++)
31 | 365 (LISPLLLPV; listed as Homo sapiens) [compound 365] | “+++” (>50 = +++)
32 | 367 (NLWSLVAKV; listed as Homo sapiens) [compound 367] | “+++” (>50 = +++)
33 | 369 (RLLDLENSLLGL; listed as Homo sapiens) [compound 369] | “+++” (>50 = +++)
34 | 370 (SIFASPESV; listed as Homo sapiens) [compound 370] | “+++” (>50 = +++)
35 | 371 (SLADDSVLERL; listed as Homo sapiens) [compound 371] | “+++” (>50 = +++)
36 | 372 (SLFGPLPGPGPALV; listed as Homo sapiens) [compound 372] | “+++” (>50 = +++)
37 | 373 (TLLADQGEIRV; listed as Homo sapiens) [compound 373] | “++” (>20% = ++)
38 | 374 (VLSVITEEL; listed as Homo sapiens) [compound 374] | “+++” (>50 = +++)
39 | 375 (VLWFKPVEL; listed as Homo sapiens) [compound 375] | “+++” (>50 = +++)
40 | 376 (VLYNQRVEEI; listed as Homo sapiens) [compound 376] | “+++” (>50 = +++)
41 | 377 (VVDGTCVAV; listed as Homo sapiens) [compound 377] | “+++” (>50 = +++)
42 | 378 (YILGKFFAL; listed as Homo sapiens) [compound 378] | “+++” (>50 = +++)
43 | 379 (YLAELVTPIL; listed as Homo sapiens) [compound 379] | “+++” (>50 = +++)
44 | 381 (YLLEENKIKL; listed as Homo sapiens) [compound 381] | “+++” (>50 = +++)
45 | 382 (YLLPLLQRL; listed as Homo sapiens) [compound 382] | “++++” (>75% = ++++)
46 | 383 (YLLREWVNL; listed as Homo sapiens) [compound 383] | “++++” (>75% = ++++)
47 | 384 (YMIGSEVGNYL; listed as Homo sapiens) [compound 384] | “++++” (>75% = ++++)
48 | 385 (YTIPLAIKL; listed as Homo sapiens) [compound 385] | “+++” (>50 = +++)
